In patent publication US6210929A, “Fusion protein comprising a furin derivative or a derivative of a furin analogue and a heterologous sequence” (Baxter Aktiengesellschaft, priority 1995, dated 2001):

How the values were obtained:
pro-vWF = assay: Co-expression of pro-vWF and r-furin in CHO cells, Western blot of cell culture supernatants; format: cell-based, human
Description: The expression plasmid for rvWF, phAct-vWF (FIG. 1), was co-transfected with the selection marker plasmid pSV-rdhfr (FIG. 1) in dhfr-deficient CHO cells, the efficiently pro-rvWF-expressing clone CHO-rvWF was selected under selection conditions, and this clone was sub-cloned to stability (Fischer et al., 1994. Febs Lett. 351:345-349). For a further analysis and for rvWF expression and function studies, the cells were at first washed with PBS several times, and subsequently, unless indicated otherwise, incubated in selection medium without serum, with a regular 24 hour medium exchange.
Approximately 40% of the rvWF secreted into the cell supernatant of CHO-rvWF was unprocessed (FIG. 2 II A). To increase the efficiency of the propeptide cleavage, the r-furin expression vector pSV-r-furink in the following was co-transfected with the selection marker plasmid pUCSV-neo into the CHO-rvWF cell clone. Under selection conditions (500 μg G418/ml), clones were identified which express r-furin in addition to rvWF (CHO-rvWF/r-furin; FIGS. 2 I A, B).
The detection of rvWF in the cell culture supernatant was effected by means of Western blot analysis (FIGS. 2 I A and II A). For this, 10 μl of reduced cell culture supernatant were separated by means of SDS-PAGE (Lammli, Nature 227:680-685, 1970), and subsequently the proteins were transferred to nitrocellulose membranes by means of the BioRad Mini Trans-Blot System (BioRad Laboratories, Richmond, Calif., USA). The Protoblot-System from Promega (Madison, Wis., USA) was used to visualize rvWF secreted into the cell culture supernatant. Rabbit anti-vWF serum (Order No. A 082) from Dakopatts (Glostrup, Denmark) was used as the antibody for vWF binding.
The detection of r-furin in the cell culture supernatant was also effected by means of Western blot analysis (FIGS. 2 I B and II B). r-Furin was visualized by using the anti-h-furin murine monoclonal antibody MON 148 (van Duijnhoven et al., Hybridoma 11: 71-86, 1992) and, as the second antibody, anti-murine IgG alkaline phosphatase conjugated goat serum (Sigma A 4656).

pro-rvWF = assay: In vitro cleavage of pro-rvWF by r-furin or fusion protein, Western blot analysis; format: biochemical, human; conditions: for in vitro processing of pro-rvWF in mixed supernatants: CHO-rvWF/r-furin and CHO-rvWF supernatants 1:1, 37° C.
Description: CHO-rvWF, CHO-rvWF/r-furin, CHO-rvWF and CHO (at a ration of 1:1), as well as CHO-rvWF and CHO-rvWF/r-furin (at a ration of 1:1) were mixed accordingly and incubated at 37° C.
Aliquots of the reaction formulations were tested for processed vWF by means of Western blot analysis immediately before incubation and after mixing of the cell culture supernatants, respectively; further aliquots were taken at time intervals of 24 hours each and assayed.
For this, 20 ml of serum-free cell culture supernatant of CHO-rvWF cells, adjusted to 2 mM imidazole, were passed over the column. […] Samples of the cell culture supernatant which were not subjected to a protease treatment served as the controls.
The negative control, an unmanipulated CHO cell culture supernatant (without r-furinΔCys-spacer-10xHis) was processed in an analogous manner on the Ni^2+ -NTA matrix.
Aliquots of the reaction mixtures were taken at the beginning of the test as well as at various points of time and frozen.
The Fractogel EMD® tentacle gel was loaded with Ni^2+ ions according to the manufacturer's instructions and equilibrated with fresh serum-free cell culture medium. Subsequently, the column was loaded with serum-free CHO-r-furinΔCys-spacer-10xHis supernatant. Washing steps were effected by serum-free cell culture medium, containing increasing imidazol concentrations up to 40 mM. Subsequently, the pro-protein substrate was guided over the column as serum-free CHO supernatant.

Boc-Arg-Val-Arg-Arg-AMC = assay: AMC peptide substrate test (fluorogenic substrate test) of furin or fusion protein activity; format: biochemical; conditions: for Intensity of the fluorescent emission at 438 nm: supernatants of permanent CHO cell clones, 2 hours of incubation, 30° C.
Description: By the action of furin, AMC (7-amino-4-methyl coumarin) is cleaved from the substrate. […] The fluorescent spectroscopic detection of the furin or fusion protein activity was effected at 30° C. in stirred quartz cells in a test volume of 2 ml. 1.7 ml of 100 mM HEPES buffer (pH 7.4, 1 mM CaCl2 and 1 mM 2-mercaptoethanol) were mixed with 0.1 ml of a substrate solution (final substrate concentration in the test: 0.1 mM) and 0.2 ml of the sample. The fluorescence was excited at a wave length of 380 nm. After 2 hours of incubation, the fluorescent emission was measured at 438 nm (Table 1).
The supernatants of various permanent CHO-r-furinΔTM-His cell clones and, as the controls, of CHO-rvWF/r-furin cells and CHO cells were subjected to the AMC peptide substrate test. The intensity of the fluorescent emission at 438 nm reflects the activity.
The activity of CHO-r-furinΔTM-His cells from cell culture supernatants before their binding to the column matrix, the individual washing fractions as well as the eluate were determined by means of AMC peptide substrate test.
The influence of imidazole on the furin activity was determined.
For this, 1 ml of Ni^2 +-NTA matrix (Quiagen), equilibrated in serum-free cell culture medium was loaded at 4° C. with 10 ml of imidazole-free CHO-r-furinΔCys-spacer-10xHis cell culture supernatant, and, as the negative control, with conditioned medium of non-manipulated CHO cells, respectively. Then the matrix was washed three times at room temperature with serum-free cell culture medium, and subsequently the fluorogenic substrate was contacted at 30° C. with immobilized r-furinΔCys-spacer-10xHis. As the positive control, CHO-r-furinΔCys-spacer-10xHis cell culture supernatant was tested for its ability to react fluorogenic substrate in solution.

rFX = assay: FX activity by FX-Coatest-Kit (RVV activation, chromogenic substrate S-2337); format: biochemical, human
Description: For this, 50 μl of each supernatant were admixed with 50 μl of FX-deficient human plasma, and according to the protocol of the producer, rFX was reacted to rFXa with snake venom (RVV) in the presence of CaCl2 ; rFXa subsequently hydrolyses the chromogenic substrate (S-2337) and leads to the liberation of the yellow-coloured paranitroaniline. Since the amount of rFXa and the colour intensity are proportional to each other, the amount of rFX activatable to rFXa/ml cell culture supernatant can be determined with the help of a calibration straight line, interpolated from values of the plasma dilution series.

single-chain rFX = assay: In vitro cleavage of the propeptide and processing of single-chain rFX, Western blot analysis; format: biochemical, human
Description: Aliquots each of the reactions were tested for processed rFX by means of Western blot analysis prior to incubation (t=0) and after various incubation periods (t=2, 4, 6 hours) (FIG. 10). The detection of rFX in the cell culture supernatants was effected by means of anti-human FX antiserum (FIG. 10A) and of a monoclonal antibody specific to the light chain of FX (FIG. 10B).

| Molecule | processing of pro-vWF in co-expressing cells (pro-vWF; medium exchange every 8 hours, serum-free) | processing of pro-vWF in co-expressing cells (pro-vWF; serum-free 24 hour cell culture supernatants) | processing of pro-vWF in co-expressing cells (pro-vWF; serum-free 24 hour cell culture supernatants, listed as CHO rvWF/r-furin) | in vitro processing of pro-rvWF in mixed supernatants (pro-rvWF; 48 h and 96 h) | in vitro processing of pro-rvWF in mixed supernatants (pro-rvWF; after 24 hours) | Intensity of the fluorescent emission at 438 nm (Boc-Arg-Val-Arg-Arg-AMC) | Activity (rFX; t = 6 hours, supernatants 1:1, 37° C.) [mU/ml] | % Functional FX (rFX; t = 6 hours, from activity and ELISA antigen) [%] | unspecific proteolytic activity (OD values) in mixture of CHO and CHO-r-furinΔTM-His supernatants (rFX; without rFX, % of the proteolytic activity) | processing of rpro-vWF on immobilized fusion protein (pro-rvWF; Ni2+ column, CHO-rvWF supernatant with 2 mM imidazole passed over, column eluate) | INTENSITY (AMC peptide substrate test) (Boc-Arg-Val-Arg-Arg-AMC; 1st washing fraction of Ni2+-NTA column) | INTENSITY (AMC peptide substrate test) (Boc-Arg-Val-Arg-Arg-AMC; 2nd washing fraction of Ni2+-NTA column) | INTENSITY (AMC peptide substrate test) (Boc-Arg-Val-Arg-Arg-AMC; 3rd washing fraction of Ni2+-NTA column) | INTENSITY (AMC peptide substrate test) (Boc-Arg-Val-Arg-Arg-AMC; eluate from Ni2+-NTA matrix (buffer A containing 200 mM imidazole)) | INTENSITY (AMC peptide substrate test) (Boc-Arg-Val-Arg-Arg-AMC; roller supernatant before binding to the Ni2+-NTA matrix) | processing of rFX (single-chain rFX) |
| --- | --- | --- | --- | --- | --- | --- | --- | --- | --- | --- | --- | --- | --- | --- | --- | --- |
| CHO-rvWF/r-furin: supernatant or cells of CHO clone co-expressing rvWF and complete recombinant human furin (r-furin), used as source of r-furin | significant amounts of pro-rvWF | only the completely processed rvWF | completely processed | completely processed vWF | only a slight portion of unprocessed pro-vWF | 444 |  |  |  |  |  |  |  |  |  |  |
| r-furinΔTM-His: furin with transmembrane and cytoplasmatic part (amino acids 708 to 794) deleted, six histidine residues appended after amino acid 707; SEQ.ID.NO. 9 (protein, His6 tag) MELRPWLLWVVAATGTLVLLAADAQGQKVFTNTWAVRIPGGPAVANSVARKHGFLNLGQIFGDYYHFWHRGVTKRSLSPHRPRHSRLQREPQVQWLEQQVAKRRTKRDVYQEPTDPKFPQQWYLSGVTQRDLNVKAAWAQGYTGHGIVVSILDDGIEKNHPDLAGNYDPGASFDVNDQDPDPQPRYTQMNDNRHGTRCAGEVAAVANNGVCGVGVAYNARIGGVRMLDGEVTDAVEARSLGLNPNHIHIYSASWGPEDDGKTVDGPARLAEEAFFRGVSQGRGGLGSIFVWASGNGGREHDSCNCDGYTNSIYTLSISSATQFGNVPWYSEACSSTLATTYSSGNQNEKQIVTTDLRQKCTESHTGTSASAPLAAGIIALTLEANKNLTWRDMQHLVVQTSKPAHLNANDWATNGVGRKVSHSYGYGLLDAGAMVALAQNWTTVAPQRKCIIDILTEPKDIGKRLEVRKTVTACLGEPNHITRLEHAQARLTLSYNRRGDLAIHLVSPMGTRSTLLAARPHDYSADGFNDWAFMTTHSWDEDPSGEWVLEIENTSEANNYGTLTKFTLVLYGTAPEGLPVPPESSGCKTLTSSQACVVCEEGFSLHQKSCVQHCPPGFAPQVLDTHYSTENDVETIRASVCAPCHASCATCQGPALTDCLSCPSHASLDPVEQTCSRQSQSSRESPPQQQPPRLPPEVEAGQRLRAGHHHHHH |  |  |  |  |  | 2524 | 344 | 43 | less than 7% | only completely processed vWF | 340 | 280 | 121 | 2820 | 2664 |  |
| CHO-r-furinΔCys-spacer-His: r-furinΔCys (to amino acid 585) with spacer Ala-Ala-Gly-Gly-Ala-Ala and six histidine residues; SEQ.ID.NO. 21 (protein, spacer and His6 tag, r-furinΔCys (to amino acid 585) with spacer Ala-Ala-Gly-Gly-Ala-Ala and six histidine residues; 21) MELRPWLLWVVAATGTLVLLAADAQGQKVFTNTWAVRIPGGPAVANSVARKHGFLNLGQIFGDYYHFWHRGVTKRSLSPHRPRHSRLQREPQVQWLEQQVAKRRTKRDVYQEPTDPKFPQQWYLSGVTQRDLNVKAAWAQGYTGHGIVVSILDDGIEKNHPDLAGNYDPGASFDVNDQDPDPQPRYTQMNDNRHGTRCAGEVAAVANNGVCGVGVAYNARIGGVRMLDGEVTDAVEARSLGLNPNHIHIYSASWGPEDDGKTVDGPARLAEEAFFRGVSQGRGGLGSIFVWASGNGGREHDSCNCDGYTNSIYTLSISSATQFGNVPWYSEACSSTLATTYSSGNQNEKQIVTTDLRQKCTESHTGTSASAPLAAGIIALTLEANKNLTWRDMQHLVVQTSKPAHLNANDWATNGVGRKVSHSYGYGLLDAGAMVALAQNWTTVAPQRKCIIDILTEPKDIGKRLEVRKTVTACLGEPNHITRLEHAQARLTLSYNRRGDLAIHLVSPMGTRSTLLAARPHDYSADGFNDWAFMTTHSWDEDPSGEWVLEIENTSEANNYGTLTKFTLVLYGTAPEGLPVPPESSAAGGAAHHHHHH |  |  |  |  |  |  |  |  |  |  |  |  |  |  |  | demonstrated |
